From paper PMC8310280

target: Shiftless (SHFL) WT (human) (UniProt Q9NUL5); experiment: EMSA
Sequence (Q9NUL5 whole entry): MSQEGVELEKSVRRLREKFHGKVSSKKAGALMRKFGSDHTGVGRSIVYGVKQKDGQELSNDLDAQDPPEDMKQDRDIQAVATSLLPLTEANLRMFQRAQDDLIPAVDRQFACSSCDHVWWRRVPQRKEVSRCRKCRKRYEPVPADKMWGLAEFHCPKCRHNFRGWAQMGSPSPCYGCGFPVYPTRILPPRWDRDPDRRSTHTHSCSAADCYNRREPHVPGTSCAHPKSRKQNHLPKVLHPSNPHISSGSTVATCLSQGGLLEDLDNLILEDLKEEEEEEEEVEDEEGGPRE

Row | Substance | Kd
1 | GACCCUAGAUGACUAGGGAGGUCAGGGACACGAGCCCCCCCCUGAACCCAGGAUAACCCUCAAAGUCGGGGGGCAACCCGUCAC [MuLV S1] | 500 nM
2 | GACCCUAGAUGACUAGGGAGGUCAGGGUCAGGAGCCCCCCCCUGAACCCAGGAUAACCCUCAAAGUCGGGGGGCAACCCGUCAC [MuLV RT signal] | 500 nM
3 | IBVmax (wild-type pseudoknot) | 500 nM
4 | control RNA (SARS-CoV-2 antigenome) | 500 nM
